Test results as given in patent US20220112276A1 (Janssen / Centocor, published 2022).
Positions count from the first letter of the chain named.

T1: rat pIgR extracellular domain (rat, UniProt P15083 19-643)
T1 construct: extracellular domain
T1 sequence (looked up): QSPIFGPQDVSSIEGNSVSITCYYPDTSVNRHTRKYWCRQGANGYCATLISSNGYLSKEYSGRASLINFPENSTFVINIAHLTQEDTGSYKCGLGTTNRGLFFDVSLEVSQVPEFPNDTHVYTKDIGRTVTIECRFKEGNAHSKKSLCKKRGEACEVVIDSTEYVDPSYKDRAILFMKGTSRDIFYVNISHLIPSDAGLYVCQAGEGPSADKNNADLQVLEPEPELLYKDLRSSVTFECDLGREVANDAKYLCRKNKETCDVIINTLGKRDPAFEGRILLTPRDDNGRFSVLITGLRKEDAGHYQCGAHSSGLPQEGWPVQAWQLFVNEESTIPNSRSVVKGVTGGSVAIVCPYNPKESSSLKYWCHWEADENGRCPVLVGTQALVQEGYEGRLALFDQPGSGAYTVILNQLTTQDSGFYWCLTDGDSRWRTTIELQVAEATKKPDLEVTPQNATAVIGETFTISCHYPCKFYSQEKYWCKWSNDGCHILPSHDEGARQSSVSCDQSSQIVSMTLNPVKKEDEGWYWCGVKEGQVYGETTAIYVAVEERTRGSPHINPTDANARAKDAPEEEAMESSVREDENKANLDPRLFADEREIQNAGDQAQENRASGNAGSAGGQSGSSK

T2: mouse pIgR extracellular domain (ECD) (mouse, UniProt O70570 19-645)
T2 construct: Bought from R&D Systems (Cat 2800-PG-050); also called mpIgR ECD
T2 sequence: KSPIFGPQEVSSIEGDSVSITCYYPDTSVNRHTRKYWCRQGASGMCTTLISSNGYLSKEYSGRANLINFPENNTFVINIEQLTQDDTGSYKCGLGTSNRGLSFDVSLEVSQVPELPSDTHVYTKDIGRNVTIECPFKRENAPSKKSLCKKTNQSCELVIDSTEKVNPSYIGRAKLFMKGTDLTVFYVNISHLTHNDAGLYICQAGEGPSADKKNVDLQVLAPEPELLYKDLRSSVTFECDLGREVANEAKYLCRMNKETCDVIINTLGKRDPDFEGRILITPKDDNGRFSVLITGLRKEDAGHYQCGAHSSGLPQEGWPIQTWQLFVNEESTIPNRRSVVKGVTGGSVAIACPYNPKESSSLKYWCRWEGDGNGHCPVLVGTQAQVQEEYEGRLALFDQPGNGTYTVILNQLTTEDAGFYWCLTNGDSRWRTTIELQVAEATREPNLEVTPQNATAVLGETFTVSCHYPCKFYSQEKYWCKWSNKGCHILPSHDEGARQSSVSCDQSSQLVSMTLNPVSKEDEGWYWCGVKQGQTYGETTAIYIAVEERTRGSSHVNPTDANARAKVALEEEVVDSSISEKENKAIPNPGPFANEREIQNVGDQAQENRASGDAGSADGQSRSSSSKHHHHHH

B1: 01C02R3LS VHH Mono-Fc (Fc fusion)
chain: QVQLVESGGGLVQAGDSLRLSCAASGRTRTTYGMGWFRQAPGKEREFVTTITWSGSTNYKYYADSVKGRFTISRDNAKNTVYLQMNSLKPDDTAVYYCAASTVLTDPRVPTEYDYWGQGTQVTVSSSPAPELLGGPSVFLFPPKPKDTLMISRTPEVTCVVVDVSHEDPEVKFNWYVDGVEVHNAKTKPREEQYNSTYRVVSVLTVLHQDWLNGKEYKCKVSNKALPAPIEKTISKAKGQPREPQVYTKPPSREEMTKNQVSLSCLVKGFYPSDIAVEWESNGQPENNYKTTVPVLDSDGSFRLASYLTVDKSRWQQGNVFSCSVMHEALHNHYTQKSLSLSPGK
B2: 01B10R3L VHH Mono-Fc (Fc fusion)
chain: QVQLVESGGGLVQAGDSLRLSCAASGRTFTTYVMGWFRQPPGKEREFVATISWSGSTTYKYYADSVKGRFTISRDNAKNTVYLQMNSLKPEDTAVYYCAASTVVADPRAPNEYDYWGQGTQVTVSSSPAPELLGGPSVFLFPPKPKDTLMISRTPEVTCVVVDVSHEDPEVKFNWYVDGVEVHNAKTKPREEQYNSTYRVVSVLTVLHQDWLNGKEYKCKVSNKALPAPIEKTISKAKGQPREPQVYTKPPSREEMTKNQVSLSCLVKGFYPSDIAVEWESNGQPENNYKTTVPVLDSDGSFRLASYLTVDKSRWQQGNVFSCSVMHEALHNHYTQKSLSLSPGK
B3: 01C08R2L VHH Mono-Fc (Fc fusion)
chain: B1 chain with Q1E, R29F, M34V
B4: 01G08R3LS VHH Mono-Fc (Fc fusion)
chain: B1 chain with R29F, A40G, T49A, A63T, D91E, V109R, P110L, T111N
B5: 01E10R2 VHH Mono-Fc (Fc fusion)
chain: EVQLVESGGGLVQAGGSLRLSCAASGRTLSVDRMGWFRQVPGKEREFIAARTWSGSSTYIYYADSVKGRFAISRDRAKNTIDLQMNSLKLEDTGAYYCAADVRGGSYDVRRDEGYAYWGQGTLVTVSSSPAPELLGGPSVFLFPPKPKDTLMISRTPEVTCVVVDVSHEDPEVKFNWYVDGVEVHNAKTKPREEQYNSTYRVVSVLTVLHQDWLNGKEYKCKVSNKALPAPIEKTISKAKGQPREPQVYTKPPSREEMTKNQVSLSCLVKGFYPSDIAVEWESNGQPENNYKTTVPVLDSDGSFRLASYLTVDKSRWQQGNVFSCSVMHEALHNHYTQKSLSLSPGK
B6: 02G06R3 VHH Mono-Fc (Fc fusion)
chain: EVQLVESGGGLVQAGGSLRLSCAASGRTFDSYAMGWFRQAPGKEREFVAAISWTGGSTDYADSVKGRFTISRDNAKNTVYLQMDSLKPEDTAVYYCAAEVVGRDVTTMYRVSGLEYEYDYWGQGTQVTVSSSPAPELLGGPSVFLFPPKPKDTLMISRTPEVTCVVVDVSHEDPEVKFNWYVDGVEVHNAKTKPREEQYNSTYRVVSVLTVLHQDWLNGKEYKCKVSNKALPAPIEKTISKAKGQPREPQVYTKPPSREEMTKNQVSLSCLVKGFYPSDIAVEWESNGQPENNYKTTVPVLDSDGSFRLASYLTVDKSRWQQGNVFSCSVMHEALHNHYTQKSLSLSPGK
B7: 02D07R3 VHH Mono-Fc (Fc fusion)
chain: EVQLVESGGGLVQPGGQLRLSCAASGSIASIRDMAWYRQAPGKQRELVAIFARGGTTHYADSVKGRFTISRDNAKNTVYLQVNSLEPEDTAAYYCNAEVATMFQPGFRDYWGRGTQVTVSSSPAPELLGGPSVFLFPPKPKDTLMISRTPEVTCVVVDVSHEDPEVKFNWYVDGVEVHNAKTKPREEQYNSTYRVVSVLTVLHQDWLNGKEYKCKVSNKALPAPIEKTISKAKGQPREPQVYTKPPSREEMTKNQVSLSCLVKGFYPSDIAVEWESNGQPENNYKTTVPVLDSDGSFRLASYLTVDKSRWQQGNVFSCSVMHEALHNHYTQKSLSLSPGK
B8: 01B11R3LS VHH Mono-Fc (Fc fusion)
chain: EVQLVESGGGVVQAEDSLRLSCAAPGLPFSSSRMGWFRQAPGKEREFVAAIGWSGRSTYRYYGDSVKGRFTVSGDNAKNTLDLQMKGLKPEDTAVYYCAADPDYYGDYRTSGAWRYWGQGTQVTVSSSPAPELLGGPSVFLFPPKPKDTLMISRTPEVTCVVVDVSHEDPEVKFNWYVDGVEVHNAKTKPREEQYNSTYRVVSVLTVLHQDWLNGKEYKCKVSNKALPAPIEKTISKAKGQPREPQVYTKPPSREEMTKNQVSLSCLVKGFYPSDIAVEWESNGQPENNYKTTVPVLDSDGSFRLASYLTVDKSRWQQGNVFSCSVMHEALHNHYTQKSLSLSPGK
B9: 01E01R3LS VHH Mono-Fc (Fc fusion)
chain: QVQLVESGGGLVQAGGSLRLSCAASGRSFSSYNMGWFRQAPGKERDLVAVVTWSGGGTSYADSVKGRFTIARDNANARLYLEMTSLKPEDTAIYYCAATQDWYGGTRAFRAASFHSWGQGTQVTVSSSPAPELLGGPSVFLFPPKPKDTLMISRTPEVTCVVVDVSHEDPEVKFNWYVDGVEVHNAKTKPREEQYNSTYRVVSVLTVLHQDWLNGKEYKCKVSNKALPAPIEKTISKAKGQPREPQVYTKPPSREEMTKNQVSLSCLVKGFYPSDIAVEWESNGQPENNYKTTVPVLDSDGSFRLASYLTVDKSRWQQGNVFSCSVMHEALHNHYTQKSLSLSPGK
B10: 01A09R3LS VHH Mono-Fc (Fc fusion)
chain: QVQLVESGGGLVQAGGSLRLSCAASGRSFSSYNMVWLRQAPGKEREVVAAVTWSGGGTSYADSVKGRFTISRDNANVRVYLQMTGLKPEDTAIYYCAATQDWYGGSRAFRAASFHSWGQGTLVTVSSSPAPELLGGPSVFLFPPKPKDTLMISRTPEVTCVVVDVSHEDPEVKFNWYVDGVEVHNAKTKPREEQYNSTYRVVSVLTVLHQDWLNGKEYKCKVSNKALPAPIEKTISKAKGQPREPQVYTKPPSREEMTKNQVSLSCLVKGFYPSDIAVEWESNGQPENNYKTTVPVLDSDGSFRLASYLTVDKSRWQQGNVFSCSVMHEALHNHYTQKSLSLSPGK
B11: 01B03R2LS VHH Mono-Fc (Fc fusion)
chain: EVQLVESGGGLVQAGDSLRLSCAASGRTGSSGAMGWFRQGPGKEREFVAALMWRNTVTYSYYADSVKGRFTISRDNAKNTAYLQMNSLKPEDTAVYYCAADPDTYGDPRNSGAYSYWGQGTLVTVSSSPAPELLGGPSVFLFPPKPKDTLMISRTPEVTCVVVDVSHEDPEVKFNWYVDGVEVHNAKTKPREEQYNSTYRVVSVLTVLHQDWLNGKEYKCKVSNKALPAPIEKTISKAKGQPREPQVYTKPPSREEMTKNQVSLSCLVKGFYPSDIAVEWESNGQPENNYKTTVPVLDSDGSFRLASYLTVDKSRWQQGNVFSCSVMHEALHNHYTQKSLSLSPGK
B12: 02F10R3 VHH Mono-Fc (Fc fusion)
chain: EVQLVESGGGLVQPGGSLRLSCVVSGSFFSLRDMGWYRQAPGKERELVGIFTRGGTTYYADSVKGRFTISRDNAKNTVDLQMNSLKPEDTAVYTCNAEIRQYSANLYRDFWGQGTQVTVSSSPAPELLGGPSVFLFPPKPKDTLMISRTPEVTCVVVDVSHEDPEVKFNWYVDGVEVHNAKTKPREEQYNSTYRVVSVLTVLHQDWLNGKEYKCKVSNKALPAPIEKTISKAKGQPREPQVYTKPPSREEMTKNQVSLSCLVKGFYPSDIAVEWESNGQPENNYKTTVPVLDSDGSFRLASYLTVDKSRWQQGNVFSCSVMHEALHNHYTQKSLSLSPGK

molecular target: T1, rat pIgR extracellular domain; test: SPR, VHH captured by anti-Fc, ECD analyte
Procedure, shortened: (§1)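 Anti-human Fc surface captured VHH at 0.5 ug/ml (~200-300 RU); running buffer HBSP with 100 ug/ml BSA, 30 μL/min. Single-cycle kinetics with ECD injected low to high from 30 nM in 3-fold dilutions, dissociation 30 min. Double-referenced data globally fit to 1:1 Langmuir model for kon, koff, KD.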

Binder | Kd
B1 | 2.77 nM
B2 | 1.58 nM
B3 | 3.02 nM
B4 | 2.27 nM
B5 | 96.9 nM
B6 | 73.5 nM
B7 | 2.37 nM
B8 | 19.9 nM
B9 | 35.2 nM
B10 | 22.5 nM
B11 | 11 nM
B12 | 6.45 nM

molecular target: T2, mouse pIgR extracellular domain (ECD); test: SPR, VHH captured by anti-Fc, ECD analyte
Procedure, shortened: as §1

Binder | Kd
B1 | 4.96 nM
B2 | 3.75 nM
B3 | 5.67 nM
B4 | 5.6 nM
B5 | 61.8 nM
B6 | 32.3 nM
B7 | 4.38 nM
B8 | 12.8 nM
B9 | 34.5 nM
B10 | 35.2 nM
B11 | 6.33 nM
B12 | 6.15 nM

molecular target: T3, human pIgR extracellular domain (ECD) (human, UniProt P01833 19-638); test: SPR, VHH captured by anti-Fc, ECD analyte
T3 construct: Bought from R&D Systems (Cat 2717-PG-050); also called hpIgR ECD
Procedure, shortened: as §1

T3 sequence (P01833 other isoform, or with tags, fused parts or gaps): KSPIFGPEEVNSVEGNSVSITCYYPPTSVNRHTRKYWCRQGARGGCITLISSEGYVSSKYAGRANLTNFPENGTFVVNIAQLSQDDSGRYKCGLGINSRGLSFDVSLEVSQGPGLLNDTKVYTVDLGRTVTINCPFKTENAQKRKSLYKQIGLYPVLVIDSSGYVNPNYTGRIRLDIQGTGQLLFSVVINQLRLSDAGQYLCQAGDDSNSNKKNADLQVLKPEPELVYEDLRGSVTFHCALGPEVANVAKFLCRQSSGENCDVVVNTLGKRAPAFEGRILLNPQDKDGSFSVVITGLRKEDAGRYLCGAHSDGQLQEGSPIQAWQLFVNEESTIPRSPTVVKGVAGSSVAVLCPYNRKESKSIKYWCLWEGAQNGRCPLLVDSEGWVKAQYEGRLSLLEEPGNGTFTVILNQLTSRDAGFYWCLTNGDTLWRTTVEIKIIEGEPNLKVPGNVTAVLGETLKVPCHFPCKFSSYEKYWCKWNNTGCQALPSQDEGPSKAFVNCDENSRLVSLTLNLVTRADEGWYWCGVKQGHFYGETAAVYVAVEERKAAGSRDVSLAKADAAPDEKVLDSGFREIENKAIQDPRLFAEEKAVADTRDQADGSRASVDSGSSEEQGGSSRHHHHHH

Binder | Kd
B1 | 8.62 nM
B2 | 8.4 nM
B3 | 9.44 nM
B4 | 8.38 nM
B9 | 14.5 nM

molecular target: T4, cynomolgus monkey pIgR extracellular domain (cynomolgus monkey, UniProt A0A2K5WMU9 19-638); test: SPR, VHH captured by anti-Fc, ECD analyte
T4 construct: extracellular domain
Procedure, shortened: as §1

T4 sequence (A0A2K5WMU9 entry or part of it): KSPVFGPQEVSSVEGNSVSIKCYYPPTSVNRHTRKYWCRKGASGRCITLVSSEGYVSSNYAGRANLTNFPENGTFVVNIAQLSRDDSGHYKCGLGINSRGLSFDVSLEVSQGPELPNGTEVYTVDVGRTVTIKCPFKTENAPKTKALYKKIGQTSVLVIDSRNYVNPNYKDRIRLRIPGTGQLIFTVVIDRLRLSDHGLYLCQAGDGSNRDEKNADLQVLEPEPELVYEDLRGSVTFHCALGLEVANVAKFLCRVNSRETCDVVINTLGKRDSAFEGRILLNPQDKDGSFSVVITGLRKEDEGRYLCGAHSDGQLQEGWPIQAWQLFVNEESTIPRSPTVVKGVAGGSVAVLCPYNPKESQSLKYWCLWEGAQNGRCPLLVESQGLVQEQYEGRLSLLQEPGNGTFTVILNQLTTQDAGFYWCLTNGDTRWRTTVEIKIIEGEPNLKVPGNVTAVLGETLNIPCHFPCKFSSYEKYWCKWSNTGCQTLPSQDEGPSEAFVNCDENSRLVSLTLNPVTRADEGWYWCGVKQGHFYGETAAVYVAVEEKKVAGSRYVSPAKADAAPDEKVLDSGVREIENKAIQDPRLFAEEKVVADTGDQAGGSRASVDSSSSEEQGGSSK

Binder | Kd
B1 | 3.09 nM
B2 | 2.19 nM
B3 | 4.14 nM
B4 | 5.42 nM
